# Results from the supplement of paper PMC9112550, “Optimization of the antimicrobial peptide Bac7 by deep mutational scanning” (BMC Biology, 2022).
# System: Escherichia coli TOP10
# Assay: shrunken log2 fold change of peptide-encoding DNA abundance (4.5 h post-induction vs induction); higher = less antimicrobial activity (less host growth inhibition)
# Settings: time post-induction: 4.5 h; library: site-saturation at positions 5, 18, 19, 20
# 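Further: peptides expressed intracellularly from a pBAD plasmid library in pooled LB shake-flask culture, induced with 0.3% L-arabinose, DNA abundance read by NGS, three biological replicates, DESeq2 with apeglm shrinkage.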
row,Sequence,shrunken log2 fold change
1,RRIRSRPPRLPRPRPRPIMAPRP,0.163
2,RRIRIRPPRLPRPRPRPNPIPRP,-0.155
3,RRIRRRPPRLPRPRPRPFTWPRP,-0.126
4,RRIRRRPPRLPRPRPRPFTKPRP,-0.221
5,RRIRHRPPRLPRPRPRPEYGPRP,-0.0913
6,RRIRVRPPRLPRPRPRPIRHPRP,-0.112
7,RRIRARPPRLPRPRPRPNKVPRP,-0.108
8,RRIRTRPPRLPRPRPRPPKEPRP,-0.000639
9,RRIRERPPRLPRPRPRPWNWPRP,-0.131
10,RRIRGRPPRLPRPRPRPEEPPRP,0.106
11,RRIRHRPPRLPRPRPRPAETPRP,-0.074
12,RRIRVRPPRLPRPRPRPREMPRP,0.0631
13,RRIRDRPPRLPRPRPRPAFFPRP,0.342
14,RRIRLRPPRLPRPRPRPVTWPRP,-0.0276
15,RRIRVRPPRLPRPRPRPWISPRP,-0.0628
16,RRIRHRPPRLPRPRPRPKCDPRP,-0.0608
17,RRIRQRPPRLPRPRPRPMFNPRP,-0.436
18,RRIRGRPPRLPRPRPRPYQAPRP,-0.119
19,RRIRKRPPRLPRPRPRPETPPRP,1.89
20,RRIRMRPPRLPRPRPRPCCRPRP,0.0467

row,Sequence,shrunken log2 fold change
1,RRIRNRPPRLPRPRPRPARFPRP,0.0266
2,RRIRVRPPRLPRPRPRPAYYPRP,-0.616
3,RRIRPRPPRLPRPRPRPRQGPRP,0.236
4,RRIRWRPPRLPRPRPRPQWAPRP,0.829
5,RRIRCRPPRLPRPRPRPIWIPRP,-0.291
6,RRIRFRPPRLPRPRPRPLRQPRP,0.0138
7,RRIRFRPPRLPRPRPRPLFLPRP,-0.478
8,RRIRYRPPRLPRPRPRPPAEPRP,0.569
9,RRIRTRPPRLPRPRPRPWLSPRP,-0.272
10,RRIRERPPRLPRPRPRPNGRPRP,-0.033
11,RRIRARPPRLPRPRPRPMKHPRP,-0.00244
12,RRIRKRPPRLPRPRPRPYTTPRP,-0.0326
13,RRIRERPPRLPRPRPRPITLPRP,0.0653
14,RRIRLRPPRLPRPRPRPFGCPRP,-0.138
15,RRIRCRPPRLPRPRPRPFTVPRP,-0.456
16,RRIRMRPPRLPRPRPRPHDQPRP,0.351
17,RRIRERPPRLPRPRPRPRVAPRP,0.343
18,RRIRYRPPRLPRPRPRPGWHPRP,0.00731
19,RRIRLRPPRLPRPRPRPCARPRP,0.0322
20,RRIRNRPPRLPRPRPRPWAMPRP,-0.175

row,Sequence,shrunken log2 fold change
1,RRIRWRPPRLPRPRPRPFGTPRP,0.00184
2,RRIRWRPPRLPRPRPRPHLWPRP,0.191
3,RRIRARPPRLPRPRPRPQSTPRP,0.0836
4,RRIRTRPPRLPRPRPRPHMLPRP,-0.389
5,RRIRERPPRLPRPRPRPMKIPRP,0.0286
6,RRIRQRPPRLPRPRPRPTNHPRP,-0.552
7,RRIRERPPRLPRPRPRPERGPRP,0.119
8,RRIRERPPRLPRPRPRPQDRPRP,-0.167
9,RRIRLRPPRLPRPRPRPINNPRP,-0.705
10,RRIRYRPPRLPRPRPRPGWCPRP,-0.128
11,RRIRHRPPRLPRPRPRPHCMPRP,-0.0295
12,RRIRFRPPRLPRPRPRPKKSPRP,0.158
13,RRIRGRPPRLPRPRPRPKHIPRP,-0.00571
14,RRIRTRPPRLPRPRPRPLSCPRP,-0.000228
15,RRIRNRPPRLPRPRPRPSWTPRP,-0.211
16,RRIRSRPPRLPRPRPRPHQVPRP,-0.0813
17,RRIRQRPPRLPRPRPRPLDPPRP,-0.408
18,RRIRWRPPRLPRPRPRPVIQPRP,-0.2
19,RRIRSRPPRLPRPRPRPYQGPRP,-0.129
20,RRIRFRPPRLPRPRPRPWILPRP,-0.144
